This series in a line: yeast display, Sf9 membrane polyspecificity reagent, FACS + sequencing; frameworks hold sequencing errors. The procedure, abridged: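 A nanobody's polyreactivity label depends on the gate it was sorted from. Yeast display cells were stained with 10% biotinylated, detergent-solubilized Sf9 membrane reagent for 1 hour at 4 °C, enriched on streptavidin microbeads and sorted by FACS. The low and high (top ~1%) gates were set on anti-HA fluorescence for expression and streptavidin fluorescence for reagent binding.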
For the sequence “QVQLVESGGGLVQAGGSLRLSCAASGSIFEGNGMGWYRQAPGKERELVAAITFRSGSTYYADSVKGRFTISRDNAKNTVYLLMNSLKPADTAVYYCAAHESYQVSAYDYWGQGSQVTVSS”, the “polyreactivity (PSR sort gate)” value is given as “low polyreactivity”.
For “QVQLVESGGGLVQAGGSLRLSCAASGSTFGIYAMGWYRPAPGKDREMVAAISSGVDTYYADSVKGRVTISRDNAKNTVDIQMNSLKPEDPAVYYCAADQFQGNSGFEYWGQGTQVTVSS”, the “polyreactivity (PSR sort gate)” value is recorded as “low polyreactivity”.
In the case of “QVQLVESGGGLVQAGGSLRLSCAASGSTFWAYAMGWYRQAPGKERELVAAITTGGGRTFYADSVKGRFTISRDNAKNTVYLQMNSLKPEDTAVYYCAAVSQSYRMYYWGEGTQVTVSS”, the “polyreactivity (PSR sort gate)” value is on record as “low polyreactivity”.
As for “QVQLVESGGGLVQAGGSLRLSCAASGRISASYAMGWYRQAPGKEREWVAAITGSGGSTYYADSVKGRFTISRDNAQNTVYLQMNSLKPEDTGVYYCAAEPVLSVFFEFDSWGQGTQVTVSS”, the “polyreactivity (PSR sort gate)” value is “low polyreactivity”.
For “QVQLVESGAGLVQAGGSLRLSCAASGNTFYQYAMGWYRQAPGKERELVAAIDWSGGSTYADSVKGRFTISRDNAKNTVYLQMNSLKPEDTAVYYCEKYTYDYWGQGTQVTVSS” the value was “low polyreactivity”.
For the sequence “QDQLVESGGGLVQAGGSLRLSCAASGSIFTKYAMGLYRQAPGKEREFVAAIDVNGGSTRYADSVKGRFTISRDYANNTVYLQMYSLKPEDTAVYYCAKDYTASYYPQGLYDYWGQGTQVTVSS”, the “polyreactivity (PSR sort gate)” value is on record as “low polyreactivity”.
As to “QVQLVESGGGLVQAGGSLRLSCAASGFIFDFYAMGWYRQAPGKERELVADITGGGSTYYADSVKGRFTISRDNAKNTVYLQMNSLKPEDTAVYYCAASYGVYWYSFWYHVAWYDYWGQGTQVTVSS”, the “polyreactivity (PSR sort gate)” value is on record as “low polyreactivity”.
On to “QVQLVESGGGLVQAGGSLRLSCAASGIIFGHYDMGWYRQAPGKERELVAAITFTGDSTYYADSVKGRFTISRDNAKNTVYLQMNSLKPEDTAVYYCAAETPVPWGSWGYDYWGQGTQVTVSS”, for which the “polyreactivity (PSR sort gate)” value was “low polyreactivity”.
As for “QVQLVESGGGLVQAGGSLRLSCAASGTFFIYAMGWYRHAPGKERELVATISTGGSTNYADSVKGRFTISRDNAKNTVYLQMNSLKQEDTAVYYCAAEWLYPHDGGYPRPMDYWGQGTQVTVSS”, the “polyreactivity (PSR sort gate)” value is reported as “low polyreactivity”.
With “QVQLVESGGGLVQAGGSLRLSCAASGSIFSDYAKGWYRQAPVKERELVAVITSGGRTNYADSLKGRFTISRDNAKNTVYLQMNSLKPEDTAVFYWNAYVHSRRVEFNYWGQGTQVTVSS” the entry was “high polyreactivity”; with “QVQLVESGGGLVQAGGSLRLSCAASGIIFRWYAMGWYRQAPGKERELVAGITSTTGTTYYADSVKGRFTISRDNAKNTVYLQMNSLKPEDTAVYYCAADYYCYTTAGVVDSFEYWGQGTQVTVSS”, “low polyreactivity”; with “QVQLVESGGGLVQAGGSLRLTCAASGSIFVQYAMGWYRQAPGKERELVATISSSGGSTYYADSVKGRCTISRDNAKNTVYLQMNSLKPEDTAVYYFAADWTLDRSYGYYADDYWGQGTQVTVSS”, “low polyreactivity”.
Consider “QGQLVESGGGLVQEGGSLRLSCAASGSTFKRYVMGWYRQAPGKERELVAAITWSGTRTYYADSVKGRFTISRDNAKNTVYLQMNSLKPVDTAVYYCAARLYGGYDWGQGTQVTVSS”, for which the “polyreactivity (PSR sort gate)” value is reported as “high polyreactivity”.
As to “QVQLVESGGGLVQAGGSLRLSCAASGFIFLGNAMGWYRPAPGKERDLVAAISSGGSTYADSVKGRFTISRDNAKYTVYLQMNSLKPEDTAVYYCAVDRAFRAQNYHEYDYWGQGTQVTVSS”, the “polyreactivity (PSR sort gate)” value is “low polyreactivity”.
“QVQLVESGGGLVQAGGSLRLSCAASGGIFGLYTMGWYRQAPGKERELVAGISKRGTRTRYADSVKGRFTISRDNAKNTVYLQMNSLKPEDTAVYYCNADYYVSKLDYWGQGTQVTVSS”: the “polyreactivity (PSR sort gate)” value is given as “high polyreactivity”.
With “QVQLVESGGGLVQAGGSLRLSCAASGSTFPPNAMGWYRQAPGKERELVAAISFSSGRTYYADSVKGRFTISRDNAKNTVYLQMNSLKPEDTAVYYCAADHGYWGQGTQVTVSS” the entry was “low polyreactivity”; with “QVQLVESGGGLVQAGGSLRLSCAASGSIFVWYDLGWYRQAPGKERELVATISLSGVSTYYADSVKGRFTISRDNAKNTVYLQMNSLKPEDTAVYYCAADFVEQGEDDYWGQGTQVTVSS”, “low polyreactivity”.
On to “QVQLVESGGGLVQAGGSLRLSCAASGSIFIQYAMGWYRQAPGKERELVAAINSSGGRTYYADSVKGRFTISRDNAKNTVYLQMNRLKPEDTAVYYCAADHGSSFDWGQGTQVTVSS”, for which the “polyreactivity (PSR sort gate)” value was “low polyreactivity”.
On to “QLQLVESGGGLVQAGGSLRLSCAASGRIFIYNAMGWYRQAPGKERELVAAINRSGVSTHYADSVKGRFTISRDNAKNTVYLQMNSLKPEDTAVYYCARTVYGARSFDYWGQGTQVTVSS”, for which the “polyreactivity (PSR sort gate)” value is listed as “low polyreactivity”.
With “QVQLVESGGGLVQAGGSLRLSCAASGGSSPNYAMGWYRQAPGKEREFVAGISRSGGSTYYADSVKGRFTISRDNAKNTVYLQMNSLKPEDTAVYVCAAARSRPYDYWGQGTQVTVSS” the entry was “high polyreactivity”.
Turning to “QVQLVESGGGLVQAGGSLRLSCAASGITIGSNVMGWYRQAPGKERELVAAISQSGGRTYYADSVKGRFTISRDNAKNTVYLQMNSLKPEDTAVYYCAKRQRSFYGRPMGDYWGQGTQVTVSS”, the “polyreactivity (PSR sort gate)” value was “high polyreactivity”.
For the sequence “QVQLVESGGRLVQAGGSLRLSCAASGRTFYIYAMGWYRQAPGKERELVADISWSGGSTYYADSVKGRFTISRDNAKNTVYLQMNSLKPEDTAVYYCAADLYVYPNWYLYYYWGQGTQVTVSS”, the “polyreactivity (PSR sort gate)” value was “high polyreactivity”.
Regarding “QVQLVESGGGLVQAGGSLRLSCAASGSTFAVYAMGWYRQEPGKERELVAVISRGANTNYADSVKGRFTISRDNAKNTVYLQMNSLIPEDTAVYYCAAPSFFTHRGRFDYWGQGTQVTVSS”, the “polyreactivity (PSR sort gate)” value is “low polyreactivity”.
For the sequence “QDQLVESGGGLDQAGGSLRLSCAASGRIFQKYAMACYRQAPGKERELVAAISSGDSTYADSVKGRFTISRDNAKNTVYLQMNSLKPEDTAVYYCAADSHYQEDFRIQYDYWGQGTQVTVSS”, the “polyreactivity (PSR sort gate)” value was “low polyreactivity”.
As for “QVQLVESGGGVVQAGGSLRLSCAASGSTFTVNGMGWYRQAPGKERELVAAIVGGDGSTYYADSVKGRFTISRDNAMNTVYLQMNSLKPEDTAVYYCAADPPGFTQYGYWGQGTQVTVSS”, the “polyreactivity (PSR sort gate)” value was “low polyreactivity”.
For “QVQLVESGGGLVQAGGSLRLSCAASGYIFTSYAMGWYRQAPGKERELVATITTGGSTYYADSVKGRFTISRDNAKNTVYLQMNSLKPEDTAVYYCNAVLHGWYDYWGQGTQVTVSS”, the “polyreactivity (PSR sort gate)” value is listed as “low polyreactivity”.
For “QVQLVESGGGLVQAGGSLRLSCAASGFIFAYNAMGWYRQAPGKERELVAGISRRGGSTYYADSVKGRFTISRDNAKNTVYLQMNSLKPEDTAVYYCAADSFTYWSWLHGYWGQGTQVTVSS” the value was “high polyreactivity”; for “QVQLVESGGGLVQAGGSLRLSCAASGSTFYTYAMGWYRQAPGKERELVAAISYRGGSTYYADSVKGRFTISRDNAKNTVYLQMNSLKPEDTAVYYCNVDGVVVGTKRGGYDYWGQGTQVTVSS”, “low polyreactivity”; for “QVQLVESGGGLVQAGGSLRLSCAASGSTFYENAKGWYRQAPGKERELVAGISRGGGSTYYADSVKGRFTISRDNAKNTVYLQMNSLKPEDTAVYYCARRPRYGVEYNYWGQGTQVTVSS”, “low polyreactivity”.
With “QVQLVESGGGLVQAGGSLRLSFAASGSTFRYNTRGWYRQAPGKEREVVATITWDTDSTYYADSVKGRFTISRDNAKNTVYLQMNSLKPEDTAVYYCAAETTWADKSYHYLQEYNYCGQGTQVTVSS” the entry was “low polyreactivity”.
For “QVQLVESGGGLVQAGGSLRLSCAASGFTFFDNAMGWYRQAPGKERELVAAITWSDGSTYYADSVKGRFTISRDNAKNTVYLQMNSLKAEDTAVYYCAVGFISYSYSNYYDVWYEYYYWGQGTQVTVSS” the value was “low polyreactivity”.
“QVQLVESGGGLVQAGGSLRLSCAASGFTFGVYAMGWYRPAPGKERELVAAITSGGGRTYADSVKGRFTISRDNAKNTVYLQMNSLKTEDTADYYCAAEGVPLRVVLDYSYWDYDYDYWGQGTQVTVSS”: the “polyreactivity (PSR sort gate)” value is “low polyreactivity”.
As to “QVQLVESGGGLVQAGGSLRLSCAASGGIFTAYTIGWYRQAPGKERELVATITRGGSTNYADSVKGRFTISRDNAMNTVYLQMNSLKPEDTAVYYCNARVQRRGVQYYYWGHGTQVTVSS”, the “polyreactivity (PSR sort gate)” value is “high polyreactivity”.
In the case of “QVQLVESGGGLVQAGGSLRLSCAASGSTFTGNAMGWYRQAPGKERELVASIRSGATTYYADSVKGRFTISRDNAKNTVYLQMNSLKPEDTAVYYCAKRYLGRRGDVYYWGQGTQVTVSS”, the “polyreactivity (PSR sort gate)” value was “high polyreactivity”.
Consider “QVQLVESGGGLVHAGGSLLLSCDATGISLVRYSMGWYRQAPGKELELVAAISGSGGSTRYADSVKGRFTISRDNAKNTVYLQMNSMIPEDSAVYYCAARGAGPLDNHYSWGQGKQVTVSS”, for which the “polyreactivity (PSR sort gate)” value was “high polyreactivity”.
With “QVLLVESGGGLVQAGGSLRLSCAPSGRTVDSYAMGWYRQAPGKETELVAAIDWGGGTTYYADSVKGRFRISRDNAKNSVYLQMNSLKPEDTAVYYCAAGDVWIAPYDSWGQGTQVTVSS”, the “polyreactivity (PSR sort gate)” value is listed as “low polyreactivity”.
With “QVQLVESGGGIVQAGGSLRLSFDASGFLFYSYAMGCYRQAPGKEREFVAAISWSGARTYYPDSVKGRFTISRDNAKNTVYLQMNSLKPEDTAVYYCIAVAFYPRSSRSWRLDYWGQGTQVTVSS”, the “polyreactivity (PSR sort gate)” value is recorded as “high polyreactivity”.
For the sequence “QVQLVESGGGLVQAGGSLRLSCAASGISFYVNAMGSYRQAPGKERELVVAITQSVDITSYADSVKGRFTISRDNEKNTVYLQMNSLKPEVTAVYYCATRVIQDDNARDYWGQGTQVTVSS”, the “polyreactivity (PSR sort gate)” value is recorded as “low polyreactivity”.
With “QVQLVESGGGLVQAGGSLRLSCAASGSIFFWNAMGWYRQAPGKERELVAAISWSAGITYYADSVKGRFTISRDNAKNTVYVQMNSLKPEDTAVYYCARDQGWYTVYYDSYDYWGQGTLVTVSS”, the “polyreactivity (PSR sort gate)” value is “low polyreactivity”.
Regarding “QVQLVESGGGLVQAGGSLRLSCAASGGTFSKNAMGWYRQAPGKERELVADIRSGGSTYYADSVKGRFTISRDNAKNTVYLQMNSLKPEDTAVYYCNADGDVNEYDYWGQGTQVTVSS”, the “polyreactivity (PSR sort gate)” value is given as “low polyreactivity”.
With “QVQLVESGGGLVQAGGSLRLSCAASGSIIGFYAMGWYRQAPGKERELVARISKRGGITYYADSVKGRFTISRDNAKNTVDLQMNSLKPEDTAVYYCAVDRRVLWYHMDYWGQGTQVTLSS” the entry was “high polyreactivity”.

These data come from the nanobody polyreactivity screen of Harvey et al. (2022).
